# Test results as given in US20160159862A1 (PROTAGONIST THERAPEUTICS, published 2016).
# Bridge positions count the residues as written; N and C are the ends. Square brackets hold non-standard residues; d marks the D form. Phe(4-COOH) = N[C@@H](Cc1ccc(C(=O)O)cc1)C(=O)O; 2Nal = N[C@@H](Cc1ccc2ccccc2c1)C(=O)O; NMeR = CN[C@@H](CCCNC(=N)N)C(=O)O; Pen = CC(C)(S)[C@H](N)C(=O)O
# What was measured:
# [1] = target: rh integrin α4β7 (R&D Systems #5397-A30) (human) (UniProt P13612); assay: α4β7-MAdCAM competition ELISA
# [2] = target: α4β1 integrin on human cells (human, UniProt P13612 34-1032; P05556 21-798); assay: cell-based or functional assay
# [3] = target: α4β7 integrin on human cells (human, UniProt P13612 34-1032; P26010 20-798); assay: cell-based or functional assay
# [4] = target: α4β1 (R&D Systems #5668-A4) (UniProt P13612); assay: α4β1-VCAM competition ELISA
# [5] = target: T1, α4β1 (R&D Systems #5668-A4) (UniProt P13612 34-977; P05556 21-728); assay: α4β1-VCAM competition ELISA
# T1 construct: bought; also called soluble α4β1
# Procedure: The solution was removed by shaking and then blocked with 250 ul of 1% BSA in 1×PBS per well. The wells were then incubated at room temperature for 1 hr with shaking. Each well was then washed once with wash buffer (50 mM Tris-HCl pH7.6, 100 mM NaCL, 1 mM MnCl2 or MgCl2, 0.05% Tween-20). 25 ul of serial dilutions of peptides starting at 200 μM in assay buffer (Assay buffer: 50 mM Tris-HCl pH7.6, 100 mM NaCl, 1 mM MnCl2 or MgCl2, 0.05% Tween-20) was added to each well. Additionally, 25 ul of α4β1 (R&D Systems #5668-A4) was added to each well at a fixed concentration of 120 nM. The final peptide and α4β1 concentrations were 100 μM and 60 nM, respectively. The plates were then incubated at 37° C. for 2 hr. The solution was then removed by shaking, and each well was washed three times with wash buffer. 50 ul of 9F10 antibody at 4 ug/ml (purified mouse anti-human CD49d, BD Bioscience Cat#555502) was then added to each well, and the plate was incubated at room temperature for 1 hr with shaking. The solution was again removed by shaking, and each well was washed three times with wash buffer. 50 ul of peroxidase-conjugated AffiniPure Goat anti-mouse IgG (Jackson immune research cat #115-035-003) diluted in 1:5000 in assay buffer was added to each well. The plate was incubated at room temperature for 30 min with shaking. […] The reaction was stepped with 2N H₂SO₄ and absorbance was read at 450 nm.
binder,measurement,setting,value
Ac-[Pen][NMeR]SDTL[Pen][2Nal][dE][dK]-NH2 (disulfide 1-7 (inferred); also: homodimer via DIG linker) [SEQ ID NO 33],IC50,[1],< 10 nM
same,α4β1 cell IC50,[2],> 100 µM
same,α4β7 cell (Hu) IC50,[3],> 10 nM
same,IC50,[4],> 100 nM
Ac-[Pen][NMeR]SDTL[Pen][Phe(4-COOH)]E[dK]-NH2 (disulfide 1-7; not fully specified (residue 10); printed as (Ac-Pen-(N-Me-R)-S-D-T-L-Pen-F(4-COOH)-E-k-NH2)2-DIG; also: homodimer of two subunits joined by DIG linker) [SEQ ID NO 129],IC50,[5],> 100 nM
